# According to publication PMC4383067 (Acta Neuropathologica Communications, 2015):
# Tests used:
# [1] = target: Amyloid fibrils of human PrP Δ100-120 (human, UniProt P04156 23-231, ∆100-120); assay: static light scattering kinetics; conditions: both partners purified
# [2] = target: Amyloid fibrils of human PrP Δ23-99 (human, UniProt P04156 100-231); assay: static light scattering kinetics; conditions: both partners purified
binder,measurement,setting,value
"Full-length human acetylcholinesterase (dimeric, recombinant) (enzyme, also called AChE; dimeric AChE) EGREDAELLVTVRGGRLRGIRLKTPGGPVSAFLGIPFAEPPMGPRRFLPPEPKQPWSGVVDATTFQSVCYQYVDTLYPGFEGTEMWNPNRELSEDCLYLNVWTPYPRPTSPTPVLVWIYGGGFYSGASSLDVYDGRFLVQAERTVLVSMNYRVGAFGFLALPGSREAPGNVGLLDQRLALQWVQENVAAFGGDPTSVTLFGESAGAASVGMHLLSPPSRGLFHRAVLQSGAPNGPWATVGMGEARRRATQLAHLVGCPPGGTGGNDTELVACLRTRPAQVLVNHEWHVLPQESVFRFSFVPVVDGDFLSDTPEALINAGDFHGLQVLVGVVKDEGSYFLVYGAPGFSKDNESLISRAEFLAGVRVGVPQVSDLAAEAVVLHYTDWLHPEDPARLREALSDVVGDHNVVCPVAQLAGRLAAQGARVYAYVFEHRASTLSWPLWMGVPHGYEIEFIFGIPLDPSRNYTAEEKIFAQRLMRYWANFARTGDPNEPRDPKAPQWPPYTAGAQQYVSLDLRPLEVRRGLRAQACAFWNRFLPKLLSATDTLDEAERQWKAEFHRWSSYMVHWKNQFDHYSKQDRCSDL",stoichiometry N,[1],0.5
same,stoichiometry N,[2],0.5
